Results as given in the supplement of paper PMC10567573.
± gives the standard deviation.

Test: protein stability index of a GFP-peptide fusion (GPS, HEK-293T) (PSI 1-6); higher = more stable
[1] = treatment: DMSO, c terminus: a fixed tail appended
[2] = treatment: MLN4924 1 uM, 8 h, c terminus: a fixed tail appended
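Further: 24-mer peptide tiles fused after GFP, lentivirally expressed, FACS-sorted into six equal bins by GFP/DsRed ratio, decoded by Illumina sequencing, PSI is the read-weighted mean bin number.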

Sequence	protein stability index [1]	protein stability index [2]	protein stability index (treatment: DMSO, c terminus: native)	protein stability index (treatment: MLN4924 1 uM, 8 h, c terminus: native)
DGTSPLNTVERYNPQENRWHTIAP [KLHL20]	4.12 ± 0.26	4.26 ± 0.35		
SKYGIINLQSLKTPTLKVFMHENL [DCAF4]	1.8 ± 0.43	2.03 ± 0.26		
KFYTWLWGVFYYFVSALGITAGAH [SCD]	2.253 ± 0.003	2.84 ± 1.1		
GPGDEVARGIAGEKFDIVKKWGIN [ARFIP2]	4 ± 0.17	4.2 ± 0.046		
DKEVRAASTEADKRLSRFDIEMSM [NLN]	4.39 ± 0.32	4.74 ± 0.32		
KYEHELALRQTVEADVNGLRRVLD [KRT16]	3.98 ± 0.15	4.09 ± 0.15		
FFWHLTLPERRGTCADRDNLTRRF [CASP6]	2.61 ± 0.36	2.09 ± 0.18		
VGLRNTLTRIRKWIEHSKLREINF [GLT8D2]	2.41 ± 0.3	1.9 ± 0.31		
DRDREEEENRLREELRQEWEAKQE [FAM50A]	5.45 ± 0.5	5.63 ± 0.16		
HTMRKISNNITLREDQLDTVLAVL [INTS4]	2.39 ± 0.27	2.35 ± 0.21		
LEHGSIYIPSSYVDSHHEYPAMTF [ESR2]	2.19 ± 0.18	2.06 ± 0.56		
EAINFCRGLGSQASTVTEIVKQQD [ACSBG2]	4.12 ± 0.11	4.11 ± 0.18		
RLLDHQDNILSLINVNDLSFVTGS [WDR41]	2.22 ± 0.28	2.51 ± 0.3		
ILLESHMVMIRGNSGLKPKDNEFT [POMT2]	2.21 ± 0.31	2.15 ± 0.21		
EQVFLYENARSGAEAEPEDQDEGE [ZBED1]	5.7 ± 0.25	5.52 ± 0.4		
RMKETQKSIYYITGESKEQVANSA [HSP90AB1]	4.07 ± 0.34	4.2 ± 0.25		
NDEIEEVRLQSIHTMRKISNNITL [INTS4]	3.75 ± 0.23	3.69 ± 0.18		
QGEPLGYRQDDPSYRSFHSGGYGQ [CTNNB1]	3.76 ± 0.48	3.96 ± 0.24		
MASDHREALLDRESENASLREKLR [LRRC45]	5.15 ± 0.093	4.95 ± 0.16		
AGLENTVAETECRYALQLQQIQGL [KRT13]	3.12 ± 0.24	2.91 ± 0.19		
PAARRCHSCVQIKNDVFICGGYNG [KLHDC10]	2.29 ± 0.42	2.43 ± 0.2		
FGAWRCLLDATVAGGQTRLQASDR [FCHSD1]	2.36 ± 0.27	2.48 ± 0.34		
AGGGGGGAGAGAPGGGRLLLSTSL [INTS3]	3.19 ± 0.12	2.94 ± 0.24		

Sequence	protein stability index [1]	protein stability index [2]	protein stability index (treatment: DMSO, c terminus: native)	protein stability index (treatment: MLN4924 1 uM, 8 h, c terminus: native)
LLATFPRRALAPPSAGFRCCAAPG [ANKRD9]	2.47 ± 0.16	2.45 ± 0.14		
LIRLFWTWHDERFLYMLMEYVPGG [PRKX]	2.59 ± 0.47	2.48 ± 0.35		
WEGFIGGFFSTVVFGFIAAYVLSK [CDS1]	2.55 ± 0.54	3.08 ± 0.15		
FDSHRLPGDCFLLLVLLLYAPVGF [AUP1]	3.02 ± 0.62	3.15 ± 0.17		
GSLILPPGPGGTMKRHSSRDAAGK [FCHO1]	4.68 ± 0.2	4.56 ± 0.2		
VGRIANTYNLTEVDKYVNSFVLKN [KLHL13]	2.64 ± 0.32	2.85 ± 0.45		
QVNEINFENMSNDDAVRVLREIVH [DVL3]	3.01 ± 0.16	3.09 ± 0.37		
KNATRETTSTLKAWLNEHRKNPYP [IRX6]	3.14 ± 0.23	3.37 ± 0.33		
RRETVLFTDYGLAALAVNTSILSR [RNF208]	2.09 ± 0.43	2.12 ± 0.18		
QQCQYRWLRVLNPDLVKGPWTKEE [MYBL2]	2.83 ± 0.38	2.9 ± 0.29		
AAVFKETFKSLSHIDPDVLYPSLN [ALG2]	2.72 ± 0.17	2.71 ± 0.22		
IGGLLGATFNCLNKRLAKYRMRNV [CLCN6]	2.34 ± 0.2	2.2 ± 0.53		
SFLEQIMAPLQPSTSRAHKLPSRR [FAM189A2]	2.8 ± 0.4	3.1 ± 0.3		
AYSLNKIHAYNLGTNAWEEIATKP [KLHDC10]	2.56 ± 0.39	2.79 ± 0.57		
PPMGKAFQELAGKELCAMSEEQFR [SPDEF]	4.3 ± 0.25	4.4 ± 0.34		
EMIITKAGRRMFPSYKVKVTGLNP [TBX5]	2.12 ± 0.14	2.4 ± 0.32		
PVPTGFFNMWGFGRVSKQASQPVK [WDR41]	2.84 ± 0.25	2.8 ± 0.21		
TLPTLPAKVYVGVKQEIAEMRIPA [NCF4]	3.36 ± 0.34	3.7 ± 0.39		
LGLSLTNGLALGPDLNILEDSAES [PSD2]	4.56 ± 0.15	4.78 ± 0.31		
LGFRAFSGSGNRLDGKKKGVEPSP [UFD1]	4.25 ± 0.46	3.94 ± 0.29		
ELERARELKEKEATLCLEFLLQND [ANKRD44]	3.94 ± 0.2	4.13 ± 0.35		
EGSYRIHVLHHGTGKWYELQDLQV [USP39]	2.73 ± 0.69	2.58 ± 0.77		
VDLVQKYLEKYYNLKNDGRQVEKR [MMP1]	2.42 ± 0.25	2.68 ± 0.36		

Sequence	protein stability index [1]	protein stability index [2]	protein stability index (treatment: DMSO, c terminus: native)	protein stability index (treatment: MLN4924 1 uM, 8 h, c terminus: native)
KAFADPEVLRRLTSSVSCALDEAA [ANKRD17]	3.08 ± 0.34	3.18 ± 0.21		
WVKQQAEREAEKEQKRLERLQRKL [SDE2]	4.18 ± 0.36	4.1 ± 0.33		
PQVSAHHRSQESLTSQESEDTYL [TBC1D10A]			5.4 ± 0.18	5.51 ± 0.16
KEATVPCTEILTEKKDTITNDSLS [MIA2]		5.49 ± 0.15		
ALPPLRTRSKSDPVLHPSEERAAP [FAM189A2]	5.64 ± 0.39	5.58 ± 0.2		
TPGSRIESILMSLPLTARWEYMHS [CPOX]	2.33 ± 0.27	2.24 ± 0.12		
TEKKQTKVEFPEARIYEETLNILL [KCTD10]	2.12 ± 0.1	2.23 ± 0.33		
DVALALAALDGGRSLEELTRLAFE [LPCAT4]	2.06 ± 0.68	2.12 ± 0.19		
EMERTQAQLRDAVQSLQLSPRTRG [RASAL3]	4.96 ± 0.36	4.77 ± 0.49		
KEKELSIELANIRDEVAFHTAKCE [MTUS2]	4.46 ± 0.43	4.37 ± 0.46		
QSLRDLGVKISEQQAEKILKSMDK [SLC25A25]	4.12 ± 0.28	4.19 ± 0.35		
RRFNENAADRHINFCKEQAARISN [ZC2HC1A]	2.56 ± 0.17	2.51 ± 0.39		
KLDIQCDLKTLSDDIKESLESEGK [ATE1]	5.19 ± 0.23	5.01 ± 0.1		
QESSFRSRKIAVEDENDLEELNNG [MIA2]	5.32 ± 0.92	5.48 ± 0.15		
VGEIVGIITRHNLTYEFLQARLRQ [CLCN6]	2.73 ± 0.64	2.67 ± 0.85		
HVPNPPSGISFPSVVDHPMPEERA [HESX1]	3.48 ± 0.74	3.99 ± 0.52		
PASEKKPVPPSEGKSRLSPAGEMK [BCL2L13]	5.28 ± 0.19	5.27 ± 0.084		
PISLQATPATPATLSASSSAGGSR [TFE3]	4.51 ± 0.18	4.87 ± 0.11		
VPAPEAFRDPIWSTWALYGRAVDQ [MYORG]	2.66 ± 0.38	2.61 ± 0.34		
GSRCLKTFEVPEENTAETITRVLY [ZBED1]	2.66 ± 0.47	2.64 ± 0.18		
DGVKESTESSNTTIEDEDVKARKQ [CAMK2D]	5.59 ± 0.15	5.74 ± 0.09		
TLYLIVALATVSLLSLVTFTFLSA [PCDHGC5]	3.2 ± 0.13	3.26 ± 0.29		
ADPDEMRMQALLIRERILGPSHPD [FEM1C]	3.94 ± 0.33	3.94 ± 0.13		

Sequence	protein stability index [1]	protein stability index [2]	protein stability index (treatment: DMSO, c terminus: native)	protein stability index (treatment: MLN4924 1 uM, 8 h, c terminus: native)
PGDMKTKMELLILETQAQVCQALA [CPOX]	2.31 ± 0.26	2.37 ± 0.34		
DQYSYSSLVMGSQTESALSKKLRA [LCOR]	3.63 ± 0.12	3.54 ± 0.27		
YMVIEEGGMNHSAFPQTPFKTGNS [KCNA3]	3.27 ± 0.17	3.22 ± 0.61		
ILSFILAIPEAIGFVMVPFEYRGE [EDNRA]	3.6 ± 0.94	3.15 ± 0.51		
SLLGEPCAGPGFTHNIAHGSLGFE [SPAG8]	3.03 ± 0.45	2.92 ± 0.4		
MQQSNLDPLSPMTASSLLSFAELF [FEM1C]	2.83 ± 0.29	2.52 ± 0.42		
RIGKRPDLLTFVQNLCKGLSQPTT [NEUROD6]	2.3 ± 0.22	2.17 ± 0.083		
PYLRGTIKMMQAVRQAFQDQDDRR [GFOD1]	3.32 ± 0.17	3.56 ± 0.34		
KEHVPTWLQNTHVYSWPKNKKNIL [TRAF3IP2]	2.71 ± 0.081	3.43 ± 0.24		
LSFSGSDVQNKLKESAQCVGDEFL [SNX8]	4.48 ± 0.2	4.49 ± 0.21		
EFYLLELMDCCLIVYHPYRPLLQY [CCNC]	3.08 ± 1.3	2.98 ± 0.45		
NRVWSISQEPDPVQRLQAYTATEQ [TRIM14]	4.09 ± 0.31	3.97 ± 0.31		
APGVLTNKRKTYTESYIARPDGDC [ZC2HC1A]	4.27 ± 0.12	4.29 ± 0.3		
RALSEYLAVFARCLAGCEGAHEQV [P3H4]	2.62 ± 0.86	2.89 ± 0.91		
GTPGYLSPEVLRKDPYGKPVDLWA [CAMK2A]	3.29 ± 0.39	3.16 ± 0.29		
GLLICLPREQAARFCSEIKSSKYG [SEPHS2]	2.04 ± 0.28	2.17 ± 0.55		
YREHKSLTGTARYMSINTHLGKEQ [CSNK1G1]	3.47 ± 0.34	3.27 ± 0.49		
VSAQYLSEIEMAKAQRDYELKKAA [FLOT1]	4.34 ± 0.22	4.54 ± 0.14		
ILAQQPDRLRDEELAELEDALRNL [TRADD]	5.29 ± 0.22	4.94 ± 0.17		
DVTLEASRESSKPRAVLKPRRVCV [PPP2R2C]	3.68 ± 0.1	3.78 ± 0.21		
